Paper PMC4643928

Assays:
Assay in all cases: fluorescence anisotropy
Details in all cases: FA: 20 mM Tris-HCl pH 7.5, 70 mM KCl, 1 mM MgCl2, 10% glycerol, 50 nM DNA, EMSA: 20 mM Tris-HCl pH 7.5, 300 mM KCl, 4 mM MgCl2, 5 mM DTT, 1 nM …
[1] = tested on: EcGyrA-CTD(ΔT) (Escherichia coli)
[2] = tested on: MBP-PfGyrA-CTD (Plasmodium falciparum)
[3] = tested on: MBP-PfGyrA-CTD(ΔN) (Plasmodium falciparum)

37-bp dsDNA
Kd [1]: 1110 nM
Kd [2]: 205 nM
Kd [3]: 222 nM
